First the molecules themselves.
B1: GFP‐tagged wild‐type RAGE (AAV‐RAGE‐Wt) [mouse] / receptor‐interacting serine/threonine protein kinase 1 (RIPK1), endogenous [mouse (endogenous in BV2 cells and in mouse hippocampus)] (parent complex)
chain 1: GQNITARIGEPLVLSCKGAPKKPPQQLEWKLNTGRTEAWKVLSPQGGPWDSVARILPNGSLLLPATGIVDEGTFRCRATNRRGKEVKSNYRVRVYQIPGKPEIVDPASELTASVPNKVGTCVSEGSYPAGTLSWHLDGKLLIPDGKETLVKEETRRHPETGLFTLRSELTVIPTQGGTHPTFSCSFSLGLPRRRPLNTAPIQLRVREPGPPEGIQLLVEPEGGIVAPGGTVTLTCAISAQPPPQVHWIKDGAPLPLAPSPVLLLPEVGHEDEGTYSCVATHPSHGPQESPPVSIRVTETGDEGPAEGSVGESGLGTLALALGILGGLGVVALLVGAILWRKRQPRREERKAPESQEDEEERAELNQSEEAEMPENGAGGP
chain 2: MQPDMSLDNIKMASSDLLEKTDLDSGGFGKVSLCYHRSHGFVILKKVYTGPNRAEYNEVLLEEGKMMHRLRHSRVVKLLGIIIEEGNYSLVMEYMEKGNLMHVLKTQIDVPLSLKGRIIVEAIEGMCYLHDKGVIHKDLKPENILVDRDFHIKIADLGVASFKTWSKLTKEKDNKQKEVSSTTKKNNGGTLYYMAPEHLNDINAKPTEKSDVYSFGIVLWAIFAKKEPYENVICTEQFVICIKSGNRPNVEEILEYCPREIISLMERCWQAIPEDRPTFLGIEEEFRPFYLSHFEEYVEEDVASLKKEYPDQSPVLQRMFSLQHDCVPLPPSRSNSEQPGSLHSSQGLQMGPVEESWFSSSPEYPQDENDRSVQAKLQEEASYHAFGIFAEKQTKPQPRQNEAYNREEERKRRVSHDPFAQQRARENIKSAGARGHSDPSTTSRGIAVQQLSWPATQTVWNNGLYNQHGFGTTGTGVWYPPNLSQMYSTYKTPVPETNIPGSTPTMPYFSGPVADDLIKYTIFNSSGIQIGNHNYMDVGLNSQPPNNTCKEESTSRHQAIFDNTTSLTDEHLNPIRENLGRQWKNCARKLGFTESQIDEIDHDYERDGLKEKVYQMLQKWLMREGTKGATVGKLAQALHQCCRIDLLNHLIRASQS

One assay covers variants of B1. Kind of assay: co-immunoprecipitation (IP: RIPK1, IB: RAGE), optical density of blot; hippocampus of db/db + RAGE-KD mice injected with AAV-RAGE-Wt or AAV-RAGE-Mut; n = 4; mean ± S.D; parent: 1.9; read off a plot.
Take chain 1 GQNITARIGEPLVLSCKGAPKKPPQQLEWKLNTGRTEAWKVLSPQGGPWDSVARILPNGSLLLPATGIVDEGTFRCRATNRRGKEVKSNYRVRVYQIPGKPEIVDPASELTASVPNKVGTCVSEGSYPAGTLSWHLDGKLLIPDGKETLVKEETRRHPETGLFTLRSELTVIPTQGGTHPTFSCSFSLGLPRRRPLNTAPIQLRVREPGPPEGIQLLVEPEGGIVAPGGTVTLTCAISAQPPPQVHWIKDGAPLPLAPSPVLLLPEVGHEDEGTYSCVATHPSHGPQESPPVSIRVTETGDEGPAEGSVGESGLGTLALALGILGGLGVVALLVGAILWAAAAAAREERKAPESQEDEEERAELNQSEEAEMPENGAGGP [chain 1 R340A, chain 1 K341A, chain 1 R342A, chain 1 Q343A, chain 1 P344A, chain 1 R345A]: the response was ~1 fold change to the db/db + RAGE-KD group.

The next assay covers variants of B1. Kind of assay: co-immunoprecipitation (IP: RAGE, IB: RIPK1), optical density of blot; hippocampus of db/db + RAGE-KD mice injected with AAV-RAGE-Wt or AAV-RAGE-Mut; n = 4; mean ± S.D; parent: 2.7; read off a plot.
Consider chain 1 GQNITARIGEPLVLSCKGAPKKPPQQLEWKLNTGRTEAWKVLSPQGGPWDSVARILPNGSLLLPATGIVDEGTFRCRATNRRGKEVKSNYRVRVYQIPGKPEIVDPASELTASVPNKVGTCVSEGSYPAGTLSWHLDGKLLIPDGKETLVKEETRRHPETGLFTLRSELTVIPTQGGTHPTFSCSFSLGLPRRRPLNTAPIQLRVREPGPPEGIQLLVEPEGGIVAPGGTVTLTCAISAQPPPQVHWIKDGAPLPLAPSPVLLLPEVGHEDEGTYSCVATHPSHGPQESPPVSIRVTETGDEGPAEGSVGESGLGTLALALGILGGLGVVALLVGAILWAAAAAAREERKAPESQEDEEERAELNQSEEAEMPENGAGGP [chain 1 R340A, chain 1 K341A, chain 1 R342A, chain 1 Q343A, chain 1 P344A, chain 1 R345A], for which the response was ~0.95 fold change to the db/db + RAGE-KD group.

(Values after paper PMC10916433 (2023).)
